Measured values published in patent publication CN105348390A (BEIJING WISDOMAB BOITECHNOLOGY CO LTD, dated 2016).

B1: S2F5 (scFv)
scFv: QVQLVQSGAEVKKPGSSVKVSCKASGGTFTGYSIHWVRQAPGQGLEWMGWINPISGSANYAQKFQGRVTITADKSTSTAYMELSSLRSEDTAVYYCARTQNNTGYRGTDYWGQGTLVTVSSGGGGSGGGGSGGGSDIQMTQSPSSLSASVGDRVTITCRASQSVSSYLNWYQQKPGKAPKLLIYGASTRPSGVPSRFSGSGSGTDFTLTISSLQPEDFATYYCQQHADTPTTFGQGTKVEIK
notes: also called 克隆S2F5
B2: S2G1 (scFv)
scFv: QMQLVQSGAEVKKPGSSVKVSCKTSGGTFGSSAIHWVRQAPRQGLEWMGRINPVLGTTNYTQKFHDRLTITADESTTTAYMELRSLRSDDTAVYYCAREGIPMIWGQGTMVTVSSGGGGSGGGGSGGGGSDIQMTQSPSSLSASVGDRVTITCRASQGIHNWLNWYQQKPGKAPKLLIYAASNRASGVPSRFSGSGSGTDFTLTISSLQPEDFATYYCQQSGKQPVTFGQGTKVEIK
notes: also called 克隆S2G1
B3: S3A12 (scFv)
scFv: QVQLVQSGAEVKKPGASVKVSCKASGYAIYNYGISWVRQAPGQGLEWMGWVSYFGGSTTYAQKLQGRGTMTTDPSTSTAYMELRSLRSDDTAVYYCAKGYGMEIWGQGTTVSSGGGGSGGGGSGGGGSDIQMTQSPSSLSASVGDRVTITCRASQNVNNWLDWYQQKPGKAPKLLIYAASTRASGVPSRFSGSGSGTDFTLTISSLQPEDFATYYCQQDRDVPVTFGQGTKVEIK
notes: also called 克隆S3A12
B4: S2B8 (scFv)
scFv: QVQLVESGGGLVKPGGSLRLSCAVSGFTFSRHSMNWVRQAPGKGLEWVSSISSGSSNIYYADSVKGRFTISRDNAKNSLYLQMNSLRDEDTAVYYCARGGLGPEYLQHWGQGTLVTVSSGGGGSGGGGSGGGGSSSELTQPASVSGSPGQSITISCTGTSSDIGDNNFVSWYQQYPGKAPKLMIYDVSNRPSGVSNRFSGSKSGNTASLTISGLQAEDEADYYCSSYTSSSTLVFGGGTKVTVLG
notes: also called 克隆S2B8
B5: H4H4-IgG4 (antibody, V domains shown)
VH: QVQLVQSGAEVKKPGASVKVSCKASGYAIYNYGISWVRQAPGQGLEWMGWVSFYNGNTNYAQKLQGRGTMTTDPSTSTAYMELRSLRSDDTAVYYCARGYVMDIWGQGTTVTVSS
VL: DIQMTQSPSSLSASVGDRVTITCRASQSINNWLDWYQQKPGKAPKLLIYAASTRPSGVPSRFSGSGSGTDFTLTISSLQPEDFATYYCQQDQDIPPTFGQGTKVEIKR
B6: H7B12-IgG4 (antibody, V domains shown)
VH: QVQLVQSGAEVKKPGASVKVSCKASGYTLNNYGISWVRQAPGQGLEWMGWVSFYNGNTNYAQKLQGRGTMTTDPSTSTAYMELRSLRSDDTAVYYCARGYVMDIWGQGTTVTVSS
VL: DIQMTQSPSSLSASVGDRVTITCRASQSINNWLDWYQQKPGKAPKLLIYAASTRPSGVPSRFSGSGSGTDFTLTISSLQPEDFATYYCQQDQDIPPTFGQGTKVEIKR
B7: H8A7-IgG4 (antibody, V domains shown)
VH: QVQLVQSGAEVKKPGASVKVSCKASGYAIYNYGISWVRQAPGQGLEWMGWVSFYNGNTNYAQKLQGRGTMTTDPSTSTAYMELRSLRSDDTAVYYCARGYVMDFWGQGTTVTVSS
VL: DIQMTQSPSSLSASVGDRVTITCRASQSINNWLDWYQQKPGKAPKLLIYAASTRPSGVPSRFSGSGSGTDFTLTISSLQPEDFATYYCQQDQDIPPTFGQGTKVEIKR
B8: H8F4-IgG4 (antibody, V domains shown)
VH: QVQLVQSGAEVKKPGASVKVSCKASGYALYNYGISWVRQAPGQGLEWMGWVSFYNGNTNYAQKLQGRGTMTTDPSTSTAYMELRSLRSDDTAVYYCARGYVMDIWGQGTTVTVSS
VL: DIQMTQSPSSLSASVGDRVTITCRASQSINNWLDWYQQKPGKAPKLLIYAASTRPSGVPSRFSGSGSGTDFTLTISSLQPEDFATYYCQQDQDIPPTFGQGTKVEIKR
B9: Alirocumab (antibody, V domains shown)
VH: EVQLVESGGGLVQPGGSLRLSCAASGFTFNNYAMNWVRQAPGKGLDWVSTISGSGGTTNYADSVKGRFIISRDSSKHTLYLQMNSLRAEDTAVYYCAKDSNWGNFDLWGRGTLVTVSS
VL: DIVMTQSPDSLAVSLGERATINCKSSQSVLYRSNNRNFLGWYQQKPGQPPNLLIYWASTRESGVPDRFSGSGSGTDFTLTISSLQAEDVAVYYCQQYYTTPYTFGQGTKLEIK

The binders below were run against T1, 重组huPCSK9-his (人PCSK9, C端His-tag) (human, UniProt Q8NBP7 54-692) (assay: solid-phase panning of scFv phage library on huPCSK9-his).
T1 construct: Expressed in HEK293 cells; not shown: C-terminal His-tag
T1 sequence (Q8NBP7 other isoform, or with tags, fused parts or gaps): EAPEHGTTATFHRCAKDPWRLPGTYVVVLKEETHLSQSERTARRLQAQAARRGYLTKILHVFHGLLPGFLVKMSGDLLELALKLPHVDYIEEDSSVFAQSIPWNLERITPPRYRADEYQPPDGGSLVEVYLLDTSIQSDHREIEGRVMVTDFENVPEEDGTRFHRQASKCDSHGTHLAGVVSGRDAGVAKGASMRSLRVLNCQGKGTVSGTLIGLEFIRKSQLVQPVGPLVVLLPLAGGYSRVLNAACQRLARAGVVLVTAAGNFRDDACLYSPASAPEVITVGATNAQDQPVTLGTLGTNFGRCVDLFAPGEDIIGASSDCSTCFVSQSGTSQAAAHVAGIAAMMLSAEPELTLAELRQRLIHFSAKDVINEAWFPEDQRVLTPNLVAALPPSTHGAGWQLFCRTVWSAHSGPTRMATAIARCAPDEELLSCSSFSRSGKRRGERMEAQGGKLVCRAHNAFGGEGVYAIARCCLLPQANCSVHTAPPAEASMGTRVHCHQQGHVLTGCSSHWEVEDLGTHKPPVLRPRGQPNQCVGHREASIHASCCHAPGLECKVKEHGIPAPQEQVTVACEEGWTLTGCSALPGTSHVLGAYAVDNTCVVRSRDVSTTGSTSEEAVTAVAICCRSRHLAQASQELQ

Binder	binding result
B1	binds
B2	binds
B3	binds
B4	binds

Each binder was assayed against T1, 重组huPCSK9-his (人PCSK9, C端His-tag) (assay: SPR, Biacore 3000, antibody captured by anti-human Fc on CM5, huPCSK9 as analyte).

Binder	Kd [nM]	koff [s⁻¹]	kon [M⁻¹ s⁻¹]
B5	0.0659	4.7e-05	714000
B6	0.0323	3.26e-05	1.01e+06
B7	0.0648	4.83e-05	746000
B8	0.0675	4.48e-05	663000
B9	0.0677	0.000154	2.27e+06
